This data set deals with the molecule itself. As to the kind of experiment: SAXS.

Here are results for 1 protein from paper doi:10.1101/2021.05.31.446396 (bioRxiv, 2021).

B1: EccCb1 enzyme, full length (Met1-Glu591), M. tuberculosis ESX-1 (enzyme)
chain: MTAEPEVRTLREVVLDQLGTAESRAYKMWLPPLTNPVPLNELIARDRRQPLRFALGIMDEPRRHLQDVWGVDVSGAGGNIGIGGAPQTGKSTLLQTMVMSAAATHSPRNVQFYCIDLGGGGLIYLENLPHVGGVANRSEPDKVNRVVAEMQAVMRQRETTFKEHRVGSIGMYRQLRDDPSQPVASDPYGDVFLIIDGWPGFVGEFPDLEGQVQDLAAQGLAFGVHVIISTPRWTELKSRVRDYLGTKIEFRLGDVNETQIDRITREIPANRPGRAVSMEKHHLMIGVPRFDGVHSADNLVEAITAGVTQIASQHTEQAPPVRVLPERIHLHELDPNPPGPESDYRTRWEIPIGLRETDLTPAHCHMHTNPHLLIFGAAKSGKTTIAHAIARAICARNSPQQVRFMLADYRSGLLDAVPDTHLLGAGAINRNSASLDEAVQALAVNLKKRLPPTDLTTAQLRSRSWWSGFDVVLLVDDWHMIVGAAGGMPPMAPLAPLLPAAADIGLHIIVTCQMSQAYKATMDKFVGAAFGSGAPTMFLSGEKQEFPSSEFKVKRRPPGQAFLVSPDGKEVIQAPYIEPPEEVFAAPPSAG
The term stoichiometry N denotes a count of units in the complex or per binding partner. With B1, the “stoichiometry N” value worked out at 12.
